Measured values from US20110263827A1 (AbbVie / Abbott, published 2011).

Assays:
EGFR [1] = molecular target: T1, EGFR (UniProt P00533 25-645, limits assumed, biotinylated); test: direct bind ELISA, C-term VD;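 also: ELISA with antibody or DVD-Ig preparations applied to target antigen-coated plates for 1 h at room temperature, TMB colour development, absorbance read at 450 nm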
T1 construct: ELISA antigen; construct not described

ErbB3 = molecular target: T2, ErbB3 (UniProt P21860 20-643, limits assumed, biotinylated); test: direct bind ELISA, N-term VD;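 also: antibody or DVD-Ig preparations bound to immobilized target antigen on ELISA plates, 1 h at room temperature, TMB detection read as absorbance at 450 nm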
T2 construct: ELISA antigen

VEGF = molecular target: T3, VEGF (UniProt P15692-4 27-191, limits assumed, biotinylated); test: direct bind ELISA, C-term VD;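 also: ELISA with antibody or DVD-Ig preparations applied to target antigen-coated plates for 1 h at room temperature, TMB colour development, absorbance read at 450 nm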
T3 construct: ELISA antigen

EGFR [2] = molecular target: T1, EGFR; test: direct bind ELISA, N-term VD;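 also: antibody or DVD-Ig preparations bound to immobilized target antigen on ELISA plates, 1 h at room temperature, TMB detection read as absorbance at 450 nm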

| Binder | EC50 (EGFR [1]) [nM] | EC50 (ErbB3) [nM] | EC50 (VEGF) [nM] | EC50 (EGFR [2]) [nM] |
| --- | --- | --- | --- | --- |
| DVD830 (bispecific antibody, DVD-Ig; HC S, LC L; variable parts only) VH: QVQLQQWGAGLLKPSETLSLTCAVYGGSFSGYYWSWIRQPPGKGLEWIGEINHSGSTNYNPSLKSRVTISVETSKNQFSLKLSSVTAADTAVYYCARDKWTWYFDLWGRGTLVTVSSASTKGPQVQLQESGPGLVKPSQTLSLTCTVSGYSISSDFAWNWIRQPPGKGLEWMGYISYSGNTRYQPSLKSRITISRDTSKNQFFLKLNSVTAADTATYYCVTAGRGFPYWGQGTLVTVSS VL: DIEMTQSPDSLAVSLGERATINCRSSQSVLYSSSNRNYLAWYQQNPGQPPKLLIYWASTRESGVPDRFSGSGSGTDFTLTISSLQAEDVAVYYCQQYYSTPRTFGQGTKVEIKRTVAAPSVFIFPPDIQMTQSPSSMSVSVGDRVTITCHSSQDINSNIGWLQQKPGKSFKGLIYHGTNLDDGVPSRFSGSGSGTDYTLTISSLQPEDFATYYCVQYAQFPWTFGGGTKLEIKR | 42.7 | 1.43 | – | – |
| DVD818 (bispecific antibody, DVD-Ig; HC L, LC S; variable parts only) VH: EVQLLESGGGLVQPGGSLRLSCAASGFTFSHYVMAWVRQAPGKGLEWVSSISSSGGWTLYADSVKGRFTISRDNSKNTLYLQMNSLRAEDTAVYYCTRGLKMATIFDYWGQGTLVTVSSASTKGPSVFPLAPQVQLQESGPGLVKPSQTLSLTCTVSGYSISSDFAWNWIRQPPGKGLEWMGYISYSGNTRYQPSLKSRITISRDTSKNQFFLKLNSVTAADTATYYCVTAGRGFPYWGQGTLVTVSS VL: QSALTQPASVSGSPGQSITISCTGTSSDVGSYNVVSWYQQHPGKAPKLIIYEVSQRPSGVSNRFSGSKSGNTASLTISGLQTEDEADYYCCSYAGSSIFVIFGGGTKVTVLGQPKAAPDIQMTQSPSSMSVSVGDRVTITCHSSQDINSNIGWLQQKPGKSFKGLIYHGTNLDDGVPSRFSGSGSGTDYTLTISSLQPEDFATYYCVQYAQFPWTFGGGTKLEIKR | 19.3 | 3.32 | – | – |
| DVD756 (bispecific antibody, DVD-Ig; HC S, LC S; variable parts only) VH: EVQLLESGGGLVQPGGSLRLSCAASGFTFSHYVMAWVRQAPGKGLEWVSSISSSGGWTLYADSVKGRFTISRDNSKNTLYLQMNSLRAEDTAVYYCTRGLKMATIFDYWGQGTLVTVSSASTKGPQVQLQESGPGLVKPSQTLSLTCTVSGYSISSDFAWNWIRQPPGKGLEWMGYISYSGNTRYQPSLKSRITISRDTSKNQFFLKLNSVTAADTATYYCVTAGRGFPYWGQGTLVTVSS VL: QSALTQPASVSGSPGQSITISCTGTSSDVGSYNVVSWYQQHPGKAPKLIIYEVSQRPSGVSNRFSGSKSGNTASLTISGLQTEDEADYYCCSYAGSSIFVIFGGGTKVTVLGQPKAAPDIQMTQSPSSMSVSVGDRVTITCHSSQDINSNIGWLQQKPGKSFKGLIYHGTNLDDGVPSRFSGSGSGTDYTLTISSLQPEDFATYYCVQYAQFPWTFGGGTKLEIKR | 48.9 | 3.94 | – | – |
| DVD791 (bispecific antibody, DVD-Ig; HC L, LC L; variable parts only) VH: QVQLQESGPGLVKPSQTLSLTCTVSGYSISSDFAWNWIRQPPGKGLEWMGYISYSGNTRYQPSLKSRITISRDTSKNQFFLKLNSVTAADTATYYCVTAGRGFPYWGQGTLVTVSSASTKGPSVFPLAPEVQLVESGGGLVQPGGSLRLSCAASGFTINASWIHWVRQAPGKGLEWVGAIYPYSGYTNYADSVKGRFTISADTSKNTAYLQMNSLRAEDTAVYYCARWGHSTSPWAMDYWGQGTLVTVSS VL: DIQMTQSPSSMSVSVGDRVTITCHSSQDINSNIGWLQQKPGKSFKGLIYHGTNLDDGVPSRFSGSGSGTDYTLTISSLQPEDFATYYCVQYAQFPWTFGGGTKLEIKRTVAAPSVFIFPPDIQMTQSPSSLSASVGDRVTITCRASQVIRRSLAWYQQKPGKAPKLLIYAASNLASGVPSRFSGSGSGTDFTLTISSLQPEDFATYYCQQSNTSPLTFGQGTKVEIKR | – | – | 11.6 | 8.24 |
| DVD779 (bispecific antibody, DVD-Ig; HC L, LC L; variable parts only) VH: QVQLQESGPGLVKPSQTLSLTCTVSGYSISSDFAWNWIRQPPGKGLEWMGYISYSGNTRYQPSLKSRITISRDTSKNQFFLKLNSVTAADTATYYCVTAGRGFPYWGQGTLVTVSSASTKGPSVFPLAPEVQLVESGGGLVQPGGSLRLSCAASGYTFTNYGMNWVRQAPGKGLEWVGWINTYTGEPTYAADFKRRFTFSLDTSKSTAYLQMNSLRAEDTAVYYCAKYPHYYGSSHWYFDVWGQGTLVTVSS VL: DIQMTQSPSSMSVSVGDRVTITCHSSQDINSNIGWLQQKPGKSFKGLIYHGTNLDDGVPSRFSGSGSGTDYTLTISSLQPEDFATYYCVQYAQFPWTFGGGTKLEIKRTVAAPSVFIFPPDIQMTQSPSSLSASVGDRVTITCSASQDISNYLNWYQQKPGKAPKVLIYFTSSLHSGVPSRFSGSGSGTDFTLTISSLQPEDFATYYCQQYSTVPWTFGQGTKVEIKR | – | – | 0.24 | 10.6 |
| DVD809 (bispecific antibody, DVD-Ig; HC L, LC S; variable parts only) VH: QVQLQESGPGLVKPSQTLSLTCTVSGYSISSDFAWNWIRQPPGKGLEWMGYISYSGNTRYQPSLKSRITISRDTSKNQFFLKLNSVTAADTATYYCVTAGRGFPYWGQGTLVTVSSASTKGPSVFPLAPEVQLVESGGGLVQPGGSLRLSCAASGYTFTNYGMNWVRQAPGKGLEWVGWINTYTGEPTYAADFKRRFTFSLDTSKSTAYLQMNSLRAEDTAVYYCAKYPHYYGSSHWYFDVWGQGTLVTVSS VL: DIQMTQSPSSMSVSVGDRVTITCHSSQDINSNIGWLQQKPGKSFKGLIYHGTNLDDGVPSRFSGSGSGTDYTLTISSLQPEDFATYYCVQYAQFPWTFGGGTKLEIKRTVAAPDIQMTQSPSSLSASVGDRVTITCSASQDISNYLNWYQQKPGKAPKVLIYFTSSLHSGVPSRFSGSGSGTDFTLTISSLQPEDFATYYCQQYSTVPWTFGQGTKVEIKR | – | – | 0.23 | 7.34 |
| DVD789 (bispecific antibody, DVD-Ig; HC L, LC L; variable parts only) VH: QVQLQESGPGLVKPSQTLSLTCTVSGYSISSDFAWNWIRQPPGKGLEWMGYISYSGNTRYQPSLKSRITISRDTSKNQFFLKLNSVTAADTATYYCVTAGRGFPYWGQGTLVTVSSASTKGPSVFPLAPEVQLVESGGGLVQPGGSLRLSCAASGFTISDYWIHWVRQAPGKGLEWVAGITPAGGYTYYADSVKGRFTISADTSKNTAYLQMNSLRAEDTAVYYCARFVFFLPYAMDYWGQGTLVTVSS VL: DIQMTQSPSSMSVSVGDRVTITCHSSQDINSNIGWLQQKPGKSFKGLIYHGTNLDDGVPSRFSGSGSGTDYTLTISSLQPEDFATYYCVQYAQFPWTFGGGTKLEIKRTVAAPSVFIFPPDIQMTQSPSSLSASVGDRVTITCRASQDVSTAVAWYQQKPGKAPKLLIYSASFLYSGVPSRFSGSGSGTDFTLTISSLQPEDFATYYCQQSYTTPPTFGQGTKVEIKR | – | – | 46 | 14.6 |
| DVD848 (bispecific antibody, DVD-Ig; HC S, LC L; variable parts only) VH: EVQLLESGGGLVQPGGSLRLSCAASGFTFSHYVMAWVRQAPGKGLEWVSSISSSGGWTLYADSVKGRFTISRDNSKNTLYLQMNSLRAEDTAVYYCTRGLKMATIFDYWGQGTLVTVSSASTKGPQVQLQESGPGLVKPSQTLSLTCTVSGYSISSDFAWNWIRQPPGKGLEWMGYISYSGNTRYQPSLKSRITISRDTSKNQFFLKLNSVTAADTATYYCVTAGRGFPYWGQGTLVTVSS VL: QSALTQPASVSGSPGQSITISCTGTSSDVGSYNVVSWYQQHPGKAPKLIIYEVSQRPSGVSNRFSGSKSGNTASLTISGLQTEDEADYYCCSYAGSSIFVIFGGGTKVTVLGQPKAAPSVTLFPPDIQMTQSPSSMSVSVGDRVTITCHSSQDINSNIGWLQQKPGKSFKGLIYHGTNLDDGVPSRFSGSGSGTDYTLTISSLQPEDFATYYCVQYAQFPWTFGGGTKLEIKR | 16.7 | 3.23 | – | – |
| DVD832 (bispecific antibody, DVD-Ig; HC S, LC L; variable parts only) VH: EVQLVESGGGLVQPGGSLRLSCAASGFTFSIYSMNWVRQAPGKGLEWVSYISSSSSTIYYADSVKGRFTISRDNAKNSLYLQMNSLRDEDTAVYYCARDRGDFDAFDIWGQGTMVTVSSASTKGPQVQLQESGPGLVKPSQTLSLTCTVSGYSISSDFAWNWIRQPPGKGLEWMGYISYSGNTRYQPSLKSRITISRDTSKNQFFLKLNSVTAADTATYYCVTAGRGFPYWGQGTLVTVSS VL: DIQMTQSPSSLSASVGDRVTITCQASQDITNYLNWYQQKPGKAPKLLIYDASNLETGVPSRFSGSGSGTDFTFTISSLQPEDIATYNCQQCENFPITFGQGTRLEIKRTVAAPSVFIFPPDIQMTQSPSSMSVSVGDRVTITCHSSQDINSNIGWLQQKPGKSFKGLIYHGTNLDDGVPSRFSGSGSGTDYTLTISSLQPEDFATYYCVQYAQFPWTFGGGTKLEIKR | 62.4 | 1.19 | – | – |
| DVD802 (bispecific antibody, DVD-Ig; HC L, LC S; variable parts only) VH: EVQLVESGGGLVQPGGSLRLSCAASGFTFSIYSMNWVRQAPGKGLEWVSYISSSSSTIYYADSVKGRFTISRDNAKNSLYLQMNSLRDEDTAVYYCARDRGDFDAFDIWGQGTMVTVSSASTKGPSVFPLAPQVQLQESGPGLVKPSQTLSLTCTVSGYSISSDFAWNWIRQPPGKGLEWMGYISYSGNTRYQPSLKSRITISRDTSKNQFFLKLNSVTAADTATYYCVTAGRGFPYWGQGTLVTVSS VL: DIQMTQSPSSLSASVGDRVTITCQASQDITNYLNWYQQKPGKAPKLLIYDASNLETGVPSRFSGSGSGTDFTFTISSLQPEDIATYNCQQCENFPITFGQGTRLEIKRTVAAPDIQMTQSPSSMSVSVGDRVTITCHSSQDINSNIGWLQQKPGKSFKGLIYHGTNLDDGVPSRFSGSGSGTDYTLTISSLQPEDFATYYCVQYAQFPWTFGGGTKLEIKR | 726 | 11.1 | – | – |
| DVD330 (bispecific antibody, DVD-Ig; HC S, LC S; variable parts only) VH: EVQLVESGGGLVQPGGSLRLSCAASGFTFSIYSMNWVRQAPGKGLEWVSYISSSSSTIYYADSVKGRFTISRDNAKNSLYLQMNSLRDEDTAVYYCARDRGDFDAFDIWGQGTMVTVSSASTKGPQVQLQESGPGLVKPSQTLSLTCTVSGYSISSDFAWNWIRQPPGKGLEWMGYISYSGNTRYQPSLKSRITISRDTSKNQFFLKLNSVTAADTATYYCVTAGRGFPYWGQGTLVTVSS VL: DIQMTQSPSSLSASVGDRVTITCQASQDITNYLNWYQQKPGKAPKLLIYDASNLETGVPSRFSGSGSGTDFTFTISSLQPEDIATYNCQQCENFPITFGQGTRLEIKRTVAAPDIQMTQSPSSMSVSVGDRVTITCHSSQDINSNIGWLQQKPGKSFKGLIYHGTNLDDGVPSRFSGSGSGTDYTLTISSLQPEDFATYYCVQYAQFPWTFGGGTKLEIKR | 224 | 1.29 | – | – |
